# Data as given in FireProtDB (doi:10.1021/bi5005975).
# B1: H56V, Q9NAV8 (parent)
# chain: MGFKQDIATIRGDLRTYAQDIFLAFLNKYPDERRYFKNYVGKSDQELKSMAKFGDHTEKVFNLMMEVADRATDCVPLASDANTLVQMKQHSSLTTGNFEKLFVALVEYMRASGQSFDSQSWDRFGKNLVSALSSAGMK
# Variants of: B1
# Conditions: Amphitrite ornata; pH 7; 20 °C; Urea; UV?visible spectrophotometer; potassium phosphate 100 mM; transition: 2; reversible: yes; structure 1EW6; whole UniProt chain shown
Variant,ddG of mutation (higher = less stable) [kcal/mol],denaturant midpoint (higher = more stable) [M],unfolding free energy [kcal/mol]
MGFKQDIATIRGDLRTYAQDIFLAFLNKYPDERRYFKNYVGKSDQELKSMAKFGDVTEKVFNLMMEVADRATDCVPLASDANTLVQMKQHSSLTTGNFEKLFVALVEYMRASGQSFDSQSWDRFGKNLVSALSSAGMK [H56V],-5.1,5.35,7.52

# Same assay, conditions: Amphitrite ornata; pH 7; Thermal; UV?visible spectrophotometer; potassium phosphate 100 mM; transition: 2; reversible: yes; structure 1EW6; whole UniProt chain shown
Variant,Tm [°C],"change of melting temperature, mutant - wild type (higher = more stable) [°C]"
MGFKQDIATIRGDLRTYAQDIFLAFLNKYPDERRYFKNYVGKSDQELKSMAKFGDVTEKVFNLMMEVADRATDCVPLASDANTLVQMKQHSSLTTGNFEKLFVALVEYMRASGQSFDSQSWDRFGKNLVSALSSAGMK [H56V],61,7
